Test results published in a protein production outcome set (Wang et al. 2014).

Experiment: label from the status in PepcDB records

Sequence | protein production
MVSRSPFESFQWKSDIFNCESTDIDNFYLLLEQEMTRLGMVEKNLGEVGKYKVSLYQSPAAKSGLPSLLISAGFHGEESAGPWGLLHFLSEASADLFERVNLSLLPLVNPTGFSRGHRFNKYGENPNRGFVFENGKPKANEHTSVEGKLLLDHAQLLIAACRDGILTCHEDVLSREAYVYSFEPSQVPGRFSLDLRDTLGGYFPIAVDGEIDACPVKDGLIFNHFDTSFEACLVRSGARVGACTETPALQNFDQRVLANSAAMTHFLALCAPLCD | not failed
MVSSLLMSFAPATVRVYATSTKGGSGGPKEEKNPIDFVLGFMTKQDQFYETNPLLKKVDEKEGTTTGGRGTVRGGKNSAPTPVPKKSEGGFGGLGSLFKK | failed
MVSSVLPNPTSAECWAALLHDPMTLDMDAVLSDFVRSTGAEPGLARDLLEGKNWDLTAALSDYEQLRQVHTANLPHVFNEGRGPKQPEREPQPGHKVERPCLQRQDDIAQEKRLSRGISHASSAIVSLARSHVASECNNEQFPLEMPIYTFQLPDLSVYSEDFRSFIERDLIEQATMVALEQAGRLNWWSTVCTSCKRLLPLATTGDGNCLLHAASLGMWGFHDRDLVLRKALYTMMRTGAEREALKRRWRWQQTQQNKEEEWEREWTELLKLASSEPRTHFSKNGGTGGGVDNSEDPVYESLEEFHVFVLAHILRRPIVVVADTMLRDSGGEAFAPIPFGGIYLPLEVPPNRCHCSPLVLAYDQAHFSALVSMEQRDQQREQAVIPLTDSEHKLLPLHFAVDPGKDWEWGKDDNDNARLAHLILSLEAKLNLLHSYMNVTWIRIPSETRAPLAQPESPTASAGEDVQSLADSLDSDRDSVCSNSNSNNGKNGKDKEKEKQRKEKDKTRADSVANKLGSFSKTLGIKLKKNMGGLGGLVHGKMGRANSANGKNGDSAERGKEKKAKSRKGSKEESGASASTSPSEKTTPSPTDKAAGASPAEKGGGPRGDAWKYSTDVKLSLNILRAAMQGERKFIFAGLLLTSHRHQFHEEMIGYYLTSAQERFSAEQEQRRRDAATAAAAAAAAAAATAKRPPRRPETEGVPVPERASPGPPTQLVLKLKERPSPGPAAGRAARAAAGGTASPGGGARRASASGPVPGRSPPAPARQSVIHVQASGARDEACAPAVGALRPCATYPQQNRSLSSQSYSPARAAALRTVNTVESLARAVPGALPGAAGTAGAAEHKSQTYTNGFGALRDGLEFADADAPTARSNGECGRGGPGPVQRRCQRENCAFYGRAETEHYCSYCYREELRRRREARGARP | failed
MVTAAQPRSPSPSPSSTAAAGQVTRRVPAVRHLGPNWYACVMGTAIVGTAGAALPGHVAGLRAACTAVWALSLVLLVVLLTARSLHWLHHRDQARAHLLDPSAAPFYGCLSMALLAVGGGALALGRDWIGTPAAVALDTVLFTAGTVIGLAAAVAVPYLMAVRHRVEPGQASPVWLLPLVAPMVSAAVGPLLVPHLPAGQPRETLLLACVAMFGMSLFATLVTLPVVFGRLLTGGPLPLALTPSLFLVLGPLGQSTTAVGKFADVAPGVVPGPYAEGFAVFAVLYGVPVTGFALMWLALAAAHVVRARRAGMRFSMTWWSFTFPVGTCVTGAEALARETGLVVYDGLTVALYALLVAAWAVAAVHTARGLFSGVLLAGPRPAPGAPRPATARTT | failed
MVTAGKTLGKRMSTMRHRSCFSLFAGLALVFCLAVGTAAAGPVQVDIYGPGQGSLNLAMAAPLGPTPGTPVSGMGVKLNGFINENLSFLPFLRLVDQRAILGGTVMQGYKSPDIDLKRFQLAGADLVVTAGWPQGDASGSFVELRVYEALSGKLVFGKAYSHVEDGLLPNVADRFCSDLMKALTGRGEFFKSTLAFVKHDGKNKRDVWLVKPVGRDLRKITNLPGEALSPSWSPDGRFVVFSHFDDRSHALGVWDRLTRQVQRIRFPGNTVIGPCFLPDNKVAVSLSSGRNPDIFLLNHLFKKERELEANPSINVSPSFDATGTKMAFTSSRMGGPQVFMKDMTTGQVTRISKTGSYNTEPSISPDGTLVAFTKMTDTGHRIFVYDMVTQSERQVSFGPGRDEQPSFAPDSYFLAFTSNRNGAQQIFLVTRHGGDPKRVPTGPGDASFARWGMIPE | failed
MVTFVLAITAISCLIWCFLLVGWGNFWRCDQVLNFDRPSTLQAYPSVAAIIPARDEASVLGQSLPSLLEQHYPGPLKIILVDDQSSDGTGAVAQRIASGLGHGDRLEVVSGQPLPPGWSGKLWAVEQGWQTVQLKKKGSDSWPEYIFLTDADIAHGPQTITALVEKAQRDNLALVSLMVLLRCESVWEKLLIPAFIFFFQKLYPFPLVNNPQRQTAAAAGGCILMQRSALQTIGGIGALKEALIDDCTLAQKVKAQKLPIWLGLTRANWSLRPYDSLETIWQMVSRTAYTQLNYNPLLLLGTLLGMALVYLTAPIALILAIIWGNAPLALLGAFTWMLMAIAYGPTLKFYGRSWLWGLTLPLIALLYSLMTLDSAWQHWRGQGGGWKGRIYPQGS | failed
MVTIANDFLTVKISRHGAELTSIKDNLTGRERLWQADPAVWGRHAPVLFPIVGALADNQYHYAGKTYHMGQHGFARDRDFTVLSATPFKASFVLKDDDKTRAMYPFAFRLIITFALENNNLHVTYHVDNPDKSEPLFFSIGGHPGFKVPMTPDTQFSDYYLNFKPRKSLVQIPLVAGEGIDYTHRTLAATDANLALTHETFDHDALIFALLGKTTFNLVSDKTKHGVSVTMTDTPYLGVWSPYPTTGDFVCIEPWWGIADTIGSTGDLTRKLGINRLEPGTAFEKGYMISIFLEHHHHHH | failed
MVTLEYNANSKLITASDAVVALSTETNIDQINVLTTSLIGETNPNFTPQPNEALSKMIKGLFESGMKNLQQKKLNEALKNVSLAIEMAQRKRAPWEAFAIQLPELHFMLRSKIDLCLILGKHLEALQDLDFLLGTGLIQPDVFVRKADCLLKLRQWEEARATCERGLALAPEDMKLRALLIETARNLAEYNGE | failed
MVTNMVKLRNLRRLYCSSRLLRTIQNGRISSVSSISLSKKYTTKSAKEGEENVERKHEEEKKDTLKSSSVPTSRISRLFHYGSLAAGVGMNAAAKGISEVAKGNSPTWKSLILSDSNIDRITNKFSKMRGVALKIGQLLSFQDEKVLPKELYEILSRVQNSANHMPQRQLEKVMAKELGANWKTKFSKFDKIPMAAASIGQVHAAELPSGQRVVVKIQYPGVKESIDSDLNSLLMLLTASSLLPKGLFLDKTIANARTELKWECDYNREARALQKFEALLKDDPAFEVPHVFPEYTTDNIITATRMEGTEIMKLPKASQETKNFISENIMRLCLEEIATFKYMQTDPNWANFLYNGRTKKIELLDFGASRPFAEDFILKYRKLLTYATLRDRKGAYEMSVQLGYLTGLESQSMKDAHVDSVLTLGEPFRGDVDKSFDFKDQTVSDRIRGNIGLMLNERLCPPPEETYSLHRKFSGIFLLCARMGASVHCAKLFKEIFAYKV | failed
MVTPAQVARRAALWMLTSTVAFGLMAITIRLASSTIATAEIAFFRNAFGLLALLPLILRPGKPLPRTRQLPQYFARTLIGLASMLCGFWAIGHLPLSQAISLSYSTPLFVTVLAVVWLHEQVRLRRWLAVAAGFIGVLVILRPGSSTFTPGLLIALLAAVISAIVAIQIKQLSRSDDSDTVVFYTYVFWVPMSLIPALFQWTWPQGIGWVWLVATGIFGTAGQLFWTRALKLGEVSALQPISFMQLPLVALLGWWLFGEAIERHTVIGAAIIIGANVYIAHRETVLARRAATHAPVEGAKPGE | failed
MVTQNKLKKLVLGLSLIAASSAAMATTDTAKPNILAIWGDDIGPFNISAYNRGIMGYKTPNIDRIANEGIIFTDSYGDQSCTAGRAGFITGQHPMRTGLTKVGLPGAKEGLNKKDPTIAELLKPHGYMTGQFGKNHLGDQDEHLPTNHGFDEFFGNLYHLNAEDEPEHPDYPKDPAFKKRFGPRGAIHSFADGKITDTGPVTKKRMETIDEEFLGAALKFIDKAHAAKKPFFVWFNSTRMHVWTRLKPESDGVTGQGLYADGMVEHDGHVGQLLDKIDKLGIAENTIIMYTTDNGAELALWPDGGYTPFRGEKNTNWEGGYRVPMMVKWAGKIKPNQVSNEMISLIDWMPTILAVAGDTNIKSKLKKGTNVGGTKFKVHLDGYNFLPHFLDTTKEGPRKEFIYSSDTGDIVGLRYEDYKFVFKEQRAHGLEVWQNPWTTLRAPKIFNLRMDPYERMDHESEGYGQWWAEHMFLMAPAMMKVAQFKATFKEFPQRQKPGSFVP | failed
